Assay [1] has as its target Staphylococcus aureus Cas9, full length, His-tagged (UniProt J7RUA5). The experiment in a line: SEC co-migration followed by SDS/PAGE band quantification. The note with it: fraction eluted around 12 mL in SEC; n = 3; parent: est. 100; read off a plot.
Assay [2] addresses SauCas9 WED-PI domain construct, His-tagged (Staphylococcus aureus). The experiment in a line: ITC; AcrIIA13b mutants E31K and E39K with SauCas9 and WED-PI (Fig. S7); buffer not told for this experiment.
The target in assay [3] is Staphylococcus haemolyticus AcrIIA13b, wild type, with C-terminal 6xHis tag (Staphylococcus haemolyticus). The assay can be described thus: SEC-MALS; Superdex 200 Increase 10/300 GL, 20 mM Tris/HCl pH 8.0, 150 mM NaCl, 20 °C, 0.5 mL/min; SEC profiles and MALS of wild type and mutants; monomer and dimer peaks coexist.
Assay [4] addresses Staphylococcus aureus Cas9, full length, His-tagged (Staphylococcus aureus) (UniProt J7RUA5). The experiment in a line: ITC; PBS pH 7.4, 20 °C; AcrIIA13b (500 μM) injected into the target protein (50 μM) in the cell, 25 injections; single-site model.
Assay [5] addresses SauCas9 PI (PAM-interacting) domain, His-tagged (Staphylococcus aureus). The description is as above.

In the case of “Staphylococcus haemolyticus AcrIIA13b, wild type, with C-terminal 6xHis tag Q25W”, the percent of parent in assay [1] was 46%.

For the substance “Staphylococcus haemolyticus AcrIIA13b, wild type, with C-terminal 6xHis tag E39K”, the percent of parent in assay [1] amounted to 35%.

The Kd is the equilibrium constant for the complex coming apart. A lower Kd goes with a tighter complex. Substance AcrIIA13b E39K mutant (natural protein) gave a Kd in assay [2] of 1310 nM.

One may read the stoichiometry N as a count of units in the complex or per binding partner. In assay [3], “Staphylococcus haemolyticus AcrIIA13b, wild type, with C-terminal 6xHis tag (natural protein)” showed a stoichiometry N of 2. In addition, the dissociation constant (Kd) in assay [4] was determined as 4470 nM; in assay [5], 970 nM.

On to “Staphylococcus haemolyticus AcrIIA13b, wild type, with C-terminal 6xHis tag E89W”, for which the percent of parent in assay [1] is 84%.

Turning to “Staphylococcus haemolyticus AcrIIA13b, wild type, with C-terminal 6xHis tag E94W”, the percent of parent in assay [1] turned out to be 87%.

For “Staphylococcus haemolyticus AcrIIA13b, wild type, with C-terminal 6xHis tag E31K”, in assay [1], the percent of parent was determined as 13%.

Turning to “Staphylococcus haemolyticus AcrIIA13b, wild type, with C-terminal 6xHis tag E21K”, in assay [1], the percent of parent was 75%.

In the case of “Staphylococcus haemolyticus AcrIIA13b, wild type, with C-terminal 6xHis tag Q87W”, the percent of parent in assay [1] came to 75%.

Source of the values: paper PMC13147308.
